How the values were obtained:
[1] = target: Repulsive guidance molecule A; assay: cell-based or functional assay
[2] = target: T1, mouse Transferrin Receptor overexpressed on Hek 293 cells (mouse, UniProt Q62351 1-763); assay: 293/mTFR cell-based assay
T1 construct: whole, on cells; also called Hek293/mTfR; 293/mTFR
Description: (§1) Meso-scale Discovery (MSD) Electrochemiluminescesnce (ECL) assays to screen for antibodies or DVDs that bind a desired target antigen expressed on the cell surface were performed as follows: Hek 293 cells overexpressing mouse Transferin Receptor were added onto MSD 96-well plates (MSD Cat# L11 XB-3, lot#2290-EA) which were blocked using blocking buffer (30% FBS Serum (Hyclone) in PBS) at 37° C. for 1 hr. After incubating at RT for 30 min with mild agitation, plates were washed with DPBS 3 times and Abs/DVDs (10,000 ng/ml) were added. After incubating for 1 hr at RT, plates were washed 3 times with DPBS and 25 ul of Goat anti human Sulfo TAG (MSD Cat# R32AC-, Lot# W001162) at 1 μg/ml is added. Following a 1 h incubation at RT for 1 hr, plates are washed and MSD read buffer is added before reading on MSD SECTOR Imager 6000. EC50 values are obtained using Xlfit4 software package

[3] = target: T1, mouse Transferrin Receptor …; assay: cell-based MSD-ECL binding on Hek293 cells overexpressing mouse TfR
Description: as §1

T1 sequence (Q62351 whole entry): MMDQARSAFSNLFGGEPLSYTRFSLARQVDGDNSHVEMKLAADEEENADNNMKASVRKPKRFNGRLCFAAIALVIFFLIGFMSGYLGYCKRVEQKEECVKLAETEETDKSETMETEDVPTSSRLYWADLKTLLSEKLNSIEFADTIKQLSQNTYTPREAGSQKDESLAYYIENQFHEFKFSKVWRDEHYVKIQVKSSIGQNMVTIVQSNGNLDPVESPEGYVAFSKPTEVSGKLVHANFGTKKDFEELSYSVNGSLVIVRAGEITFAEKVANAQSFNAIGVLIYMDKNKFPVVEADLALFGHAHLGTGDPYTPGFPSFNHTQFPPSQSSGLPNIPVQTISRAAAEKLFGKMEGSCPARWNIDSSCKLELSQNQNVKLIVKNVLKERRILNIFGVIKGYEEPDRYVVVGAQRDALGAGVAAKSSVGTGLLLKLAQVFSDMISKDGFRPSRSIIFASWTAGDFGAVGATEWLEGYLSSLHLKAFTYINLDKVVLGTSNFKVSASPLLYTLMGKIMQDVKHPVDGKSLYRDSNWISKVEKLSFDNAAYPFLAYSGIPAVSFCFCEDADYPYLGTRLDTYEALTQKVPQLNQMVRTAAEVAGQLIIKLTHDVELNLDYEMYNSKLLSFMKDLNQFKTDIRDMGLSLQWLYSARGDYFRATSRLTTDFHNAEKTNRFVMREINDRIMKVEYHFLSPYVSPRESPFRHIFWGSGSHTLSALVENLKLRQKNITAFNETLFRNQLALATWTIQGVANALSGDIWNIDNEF

B1: RGMA (AE12-1) (antibody, V domains shown)
VH: EVQLVQSGAEVKKPGASVKVSCKASGYTFTSHGISWVRQAPGQGLDWMGWISPYSGNTNYAQKLQGRVTMTTDTSTSTAYMELSSLRSEDTAVYYCARVGSGPYYYMDVWGQGTLVTVSS
VL: QSALTQPRSVSGSPGQSVTISCTGTSSSVGDSIYVSWYQQHPGKAPKLMLYDVTKRPSGVPDRFSGSKSGNTASLTISGLQAEDEADYYCCSYAGTDTLFGGGTKVTVLG
With B1 the “BMP Assay (EC50, nM)” value [1] was 0.25 nM.

B2: TfR(AB405)-SL-RGMA(AE12-1) (bispecific antibody)
VH: QVQLVQSGAEVKKPGASVKVSCKASGFTFSNYGMHWIRQAPGQGLEWIAMIYYDSSKMNYADTVKGRFTITRDNSTNTLYMELSSLRSEDTAVYYCAVPTSHYVVDVWGQGTTVTVSSASTKGPEVQLVQSGAEVKKPGASVKVSCKASGYTFTSHGISWVRQAPGQGLDWMGWISPYSGNTNYAQKLQGRVTMTTDTSTSTAYMELSSLRSEDTAVYYCARVGSGPYYYMDVWGQGTLVTVSS
VL: EIVMTQSPATLSVSPGERATLSCQASQDIGNWLAWYQQKPGQSPRLLIYGATSLADGVPARFSGSRSGTEFTLTISSLQSEDFAVYYCLQAYNTPWTFGGGTKVEIKRTVAAPSVFIFPPQSALTQPRSVSGSPGQSVTISCTGTSSSVGDSIYVSWYQQHPGKAPKLMLYDVTKRPSGVPDRFSGSKSGNTASLTISGLQAEDEADYYCCSYAGTDTLFGGGTKVTVLG
notes: DVD-Ig composed from its name; constant regions not assigned
For B2, the “BMP Assay (EC50, nM)” value [1] was 0.73 nM and the EC50 [2] was 4.41 nM.

B3: TfR(AB405)-LL-RGMA(AE12-1) (bispecific antibody)
chain 1: QVQLVQSGAEVKKPGASVKVSCKASGFTFSNYGMHWIRQAPGQGLEWIAMIYYDSSKMNYADTVKGRFTITRDNSTNTLYMELSSLRSEDTAVYYCAVPTSHYVVDVWGQGTTVTVSSASTKGPSVFPLAPEVQLVQSGAEVKKPGASVKVSCKASGYTFTSHGISWVRQAPGQGLDWMGWISPYSGNTNYAQKLQGRVTMTTDTSTSTAYMELSSLRSEDTAVYYCARVGSGPYYYMDVWGQGTLVTVSS
chain 2: EIVMTQSPATLSVSPGERATLSCQASQDIGNWLAWYQQKPGQSPRLLIYGATSLADGVPARFSGSRSGTEFTLTISSLQSEDFAVYYCLQAYNTPWTFGGGTKVEIKRTVAAPSVFIFPPQSALTQPRSVSGSPGQSVTISCTGTSSSVGDSIYVSWYQQHPGKAPKLMLYDVTKRPSGVPDRFSGSKSGNTASLTISGLQAEDEADYYCCSYAGTDTLFGGGTKVTVLG
In the case of B3, the “BMP Assay (EC50, nM)” value [1] is reported as 0.701 nM and the EC50 [2] is reported as 4.44 nM.

B4: AB405-SL-Aβ(3D6) (bispecific antibody)
VH: QVQLVQSGAEVKKPGASVKVSCKASGFTFSNYGMHWIRQAPGQGLEWIAMIYYDSSKMNYADTVKGRFTITRDNSTNTLYMELSSLRSEDTAVYYCAVPTSHYVVDVWGQGTTVTVSSASTKGPEVQLLESGGGLVQPGGSLRLSCAASGFTFSNYGMSWVRQAPGKGLEWVASIRSGGGRTYYSDNVKGRFTISRDNSKNTLYLQMNSLRAEDTAVYYCVRYDHYSGSSDYWGQGTLVTVSS
VL: EIVMTQSPATLSVSPGERATLSCQASQDIGNWLAWYQQKPGQSPRLLIYGATSLADGVPARFSGSRSGTEFTLTISSLQSEDFAVYYCLQAYNTPWTFGGGTKVEIKRTVAAPSVFIFPPDVVMTQSPLSLPVTPGEPASISCKSSQSLLDSDGKTYLNWLLQKPGQSPQRLIYLVSKLDSGVPDRFSGSGSGTDFTLKISRVEAEDVGVYYCWQGTHFPRTFGQGTKVEIKR
notes: DVD-Ig composed from its name; constant regions not assigned; also called AB405-SL-Aβ(3D6) DVD-Ig
With B4 the EC50 [2] was 4.71 nM.

B5: TfR(AB405)-GS-RGMA(AE12-1) (bispecific antibody)
VH: QVQLVQSGAEVKKPGASVKVSCKASGFTFSNYGMHWIRQAPGQGLEWIAMIYYDSSKMNYADTVKGRFTITRDNSTNTLYMELSSLRSEDTAVYYCAVPTSHYVVDVWGQGTTVTVSSGGGGSGGGGSEVQLVQSGAEVKKPGASVKVSCKASGYTFTSHGISWVRQAPGQGLDWMGWISPYSGNTNYAQKLQGRVTMTTDTSTSTAYMELSSLRSEDTAVYYCARVGSGPYYYMDVWGQGTLVTVSS
VL: EIVMTQSPATLSVSPGERATLSCQASQDIGNWLAWYQQKPGQSPRLLIYGATSLADGVPARFSGSRSGTEFTLTISSLQSEDFAVYYCLQAYNTPWTFGGGTKVEIKRGGSGGGGSGQSALTQPRSVSGSPGQSVTISCTGTSSSVGDSIYVSWYQQHPGKAPKLMLYDVTKRPSGVPDRFSGSKSGNTASLTISGLQAEDEADYYCCSYAGTDTLFGGGTKVTVLG
notes: as for B2
With B5 the “BMP Assay (EC50, nM)” value [1] was 3.12 nM and the EC50 [2] was 28.1 nM.

B6: DVD1295 (bispecific antibody)
VH: EVQLLESGGGLVQPGGSLRLSCAASGFTFSNYGMSWVRQAPGKGLEWVASIRSGGGRTYYSDNVKGRFTISRDNSKNTLYLQMNSLRAEDTAVYYCVRYDHYSGSSDYWGQGTLVTVSSASTKGPEVQLVESGGGLVQPGNSLTLSCVASGFTFSNYGMHWIRQAPKKGLEWIAMIYYDSSKMNYADTVKGRFTISRDNSKNTLYLEMNSLRSEDTAMYYCAVPTSHYVVDVWGQGVSVTVSS
VL: DVVMTQSPLSLPVTPGEPASISCKSSQSLLDSDGKTYLNWLLQKPGQSPQRLIYLVSKLDSGVPDRFSGSGSGTDFTLKISRVEAEDVGVYYCWQGTHFPRTFGQGTKVEIKRTVAAPDIQMTQSPASLSASLEEIVTITCQASQDIGNWLAWYQQKPGKSPQLLIYGATSLADGVPSRFSGSRSGTQFSLKISRVQVEDIGIYYCLQAYNTPWTFGGGTKLELKR
notes: DVD-Ig, outer AB043 (APP), inner AB221 (TfR), HG-short/LK-short; dual variable regions only; constant regions not assigned
Binder B6 has an EC50 [3] of 3.7 nM.

B7: TfR(AB405)-LS-RGMA(AE12-1) (bispecific antibody)
chain 1: QVQLVQSGAEVKKPGASVKVSCKASGFTFSNYGMHWIRQAPGQGLEWIAMIYYDSSKMNYADTVKGRFTITRDNSTNTLYMELSSLRSEDTAVYYCAVPTSHYVVDVWGQGTTVTVSSASTKGPSVFPLAPEVQLVQSGAEVKKPGASVKVSCKASGYTFTSHGISWVRQAPGQGLDWMGWISPYSGNTNYAQKLQGRVTMTTDTSTSTAYMELSSLRSEDTAVYYCARVGSGPYYYMDVWGQGTLVTVSS
chain 2: EIVMTQSPATLSVSPGERATLSCQASQDIGNWLAWYQQKPGQSPRLLIYGATSLADGVPARFSGSRSGTEFTLTISSLQSEDFAVYYCLQAYNTPWTFGGGTKVEIKRTVAAPQSALTQPRSVSGSPGQSVTISCTGTSSSVGDSIYVSWYQQHPGKAPKLMLYDVTKRPSGVPDRFSGSKSGNTASLTISGLQAEDEADYYCCSYAGTDTLFGGGTKVTVLG
For B7, the EC50 [2] was 3.9 nM.

B8: DVD1294 (bispecific antibody)
VH: EVQLVESGGGLVQPGNSLTLSCVASGFTFSNYGMHWIRQAPKKGLEWIAMIYYDSSKMNYADTVKGRFTISRDNSKNTLYLEMNSLRSEDTAMYYCAVPTSHYVVDVWGQGVSVTVSSASTKGPEVQLLESGGGLVQPGGSLRLSCAASGFTFSNYGMSWVRQAPGKGLEWVASIRSGGGRTYYSDNVKGRFTISRDNSKNTLYLQMNSLRAEDTAVYYCVRYDHYSGSSDYWGQGTLVTVSS
VL: DIQMTQSPASLSASLEEIVTITCQASQDIGNWLAWYQQKPGKSPQLLIYGATSLADGVPSRFSGSRSGTQFSLKISRVQVEDIGIYYCLQAYNTPWTFGGGTKLELKRTVAAPDVVMTQSPLSLPVTPGEPASISCKSSQSLLDSDGKTYLNWLLQKPGQSPQRLIYLVSKLDSGVPDRFSGSGSGTDFTLKISRVEAEDVGVYYCWQGTHFPRTFGQGTKVEIKR
notes: DVD-Ig, outer AB221 (TfR), inner AB043 (APP), HG-short/LK-short; the entries are the dual variable regions only; constant regions not assigned
For B8, the EC50 [3] was 0.11 nM.

B9: DVD2359 (bispecific antibody)
VH: EVQLLESGGGLVQPGGSLRLSCAASGFTFSNYGMSWVRQAPGKGLEWVASIRSGGGRTYYSDNVKGRFTISRDNSKNTLYLQMNSLRAEDTAVYYCVRYDHYSGSSDYWGQGTLVTVSSASTKGPEVQLVESGGGLVQPGGSLRLSCAASGFTFSNYGMHWIRQAPGKGLEWIAMIYYDSSKMNYADTVKGRFTISRDNAKNSLYLQMNSLRAEDTAVYYCAVPTSHYVVDVWGQGTTVTVSS
VL: DVVMTQSPLSLPVTPGEPASISCKSSQSLLDSDGKTYLNWLLQKPGQSPQRLIYLVSKLDSGVPDRFSGSGSGTDFTLKISRVEAEDVGVYYCWQGTHFPRTFGQGTKVEIKRTVAAPAIQMTQSPSSLSASVGDRVTITCQASQDIGNWLAWYQQKPGKSPKLLIYGATSLADGVPSRFSGSRSGTDFTLTISSLQPEDFATYYCLQAYNTPWTFGGGTKVEIKR
notes: DVD-Ig, outer AB043 (APP), inner AB402 (TfR), HG-short/LK-short; dual variable regions only; constant regions not assigned; also called Aβ(3D6)-SS-AB402 DVD2359; Aβ(3D6)-SS-AB402 DVD-Ig 2359
B9 showed an EC50 [2] of 12 nM and an EC50 [3] of 12 nM.

B10: DVD2361 (bispecific antibody)
chain 1: EVQLLESGGGLVQPGGSLRLSCAASGFTFSNYGMSWVRQAPGKGLEWVASIRSGGGRTYYSDNVKGRFTISRDNSKNTLYLQMNSLRAEDTAVYYCVRYDHYSGSSDYWGQGTLVTVSSASTKGPEVQLVESGGGLVQPGGSLRLSCAASGFTFSNYGMHWIRQAPGKGLEWIAMIYYDSSKMNYADTVKGRFTISRDNAKNSLYLQMNSLRAEDTAVYYCAVPTSHYVVDVWGQGTTVTVSS
chain 2: DVVMTQSPLSLPVTPGEPASISCKSSQSLLDSDGKTYLNWLLQKPGQSPQRLIYLVSKLDSGVPDRFSGSGSGTDFTLKISRVEAEDVGVYYCWQGTHFPRTFGQGTKVEIKRTVAAPEIVMTQSPATLSVSPGERATLSCQASQDIGNWLAWYQQKPGQSPRLLIYGATSLADGVPARFSGSRSGTEFTLTISSLQSEDFAVYYCLQAYNTPWTFGGGTKVEIKR
For B10, the EC50 [3] was 10.7 nM.

B11: Aβ(3D6)-GS-AB403 (bispecific antibody)
VH: EVQLLESGGGLVQPGGSLRLSCAASGFTFSNYGMSWVRQAPGKGLEWVASIRSGGGRTYYSDNVKGRFTISRDNSKNTLYLQMNSLRAEDTAVYYCVRYDHYSGSSDYWGQGTLVTVSSGGGGSGGGGSEVQLVESGGGLVQPGGSLRLSCAASGFTFSNYGMHWIRQAPGKGLEWIAMIYYDSSKMNYADTVKGRFTISRDNAKNSLYLQMNSLRAEDTAVYYCAVPTSHYVVDVWGQGTTVTVSS
VL: DVVMTQSPLSLPVTPGEPASISCKSSQSLLDSDGKTYLNWLLQKPGQSPQRLIYLVSKLDSGVPDRFSGSGSGTDFTLKISRVEAEDVGVYYCWQGTHFPRTFGQGTKVEIKRGGSGGGGSGEIVMTQSPATLSVSPGERATLSCQASQDIGNWLAWYQQKPGQSPRLLIYGATSLADGVPARFSGSRSGTEFTLTISSLQSEDFAVYYCLQAYNTPWTFGGGTKVEIKR
notes: DVD-Ig composed from its name; Aβ(3D6) = AB043 read from DVD2359; constant regions not assigned; also called Aβ(3D6)-GS-AB403 DVD-Ig
With B11 the EC50 [2] was 1.98 nM.
